Test results: patent US20150368299A1

Biological target: Aβ(1-40) monomer in 0.1% NaOH (human)
Test: dot blot with densitometry; Aβ form dotted on nitrocellulose in serial dilution, antibody 0.2 µg/ml; higher value = weaker recognition

Chain of Aβ(1-40) monomer in 0.1% NaOH (human) (peptide, as listed by the source): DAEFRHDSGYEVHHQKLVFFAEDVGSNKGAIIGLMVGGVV

dot blot relation of recognition of Aβ(20-42) globulomer to recognition of this Aβ form: 110000
B1: murine monoclonal anti-Aβ(20-42) globulomer antibody m4C9 (antibody, V domains shown)
VH: QVQLQQPGAELVKPGASVKLSCKAPGYTFTSYWMHWVKQRPGQGLEWIGRIDPKSGDTKYTEKFKSKATLTVDKPSSTAYMQLSSLTSEDSAVYYCTTMSKLSGTHAWFAYWGQGTLVTVSA
VL: DIKMTQSPSSMYASLGERVTITCKASQDINSYLTWFQQKPGKSPKTLIYRANRLVDGVPSRFSGSGSGQDYSLTISSLEYEDMGIYYCLQYDEFPLTFGAGTKLELK
